Laboratory results taken from patent publication US20100041597A1, “PEPTIDES TARGETED TO PROTEIN KINASE C ISOFORMS AND USES THEREOF” (priority 2005, published 2010).

Columns and labels:
Assay in all cases: Competitive binding assay using cell extracts (Western blot)
PKC-ι = target: T1, PKC-ι (Homo sapiens, UniProt P41743); set-up: key: —: no detectable affinity; Low to very low affinity at 10X or 20X or both PRE concentrations in at least one cell line in the cell extract assay; Low affinity in purified isoform assay.; Moderate affinity at 10X or 20X or both PRE concentrations in at least one cell line in the cell extract assay.; High affinity at 10X or 20X or both PRE concentrations in at least one cell line in the cell extract assay; High affinity in purified isoform assay; details: Cell extract; PRE at 10X, 20X antibody concentration; Table 20
T1 construct: cytoplasmic extracts from different cell lines expressing appropriate PKC isoforms; endogenous in cells; host or cells: MDAMB231, LnCAP, H661, CCD16Lu, Du145, LS180 (human, from ATCC)
T1 sequence (P41743 1-596): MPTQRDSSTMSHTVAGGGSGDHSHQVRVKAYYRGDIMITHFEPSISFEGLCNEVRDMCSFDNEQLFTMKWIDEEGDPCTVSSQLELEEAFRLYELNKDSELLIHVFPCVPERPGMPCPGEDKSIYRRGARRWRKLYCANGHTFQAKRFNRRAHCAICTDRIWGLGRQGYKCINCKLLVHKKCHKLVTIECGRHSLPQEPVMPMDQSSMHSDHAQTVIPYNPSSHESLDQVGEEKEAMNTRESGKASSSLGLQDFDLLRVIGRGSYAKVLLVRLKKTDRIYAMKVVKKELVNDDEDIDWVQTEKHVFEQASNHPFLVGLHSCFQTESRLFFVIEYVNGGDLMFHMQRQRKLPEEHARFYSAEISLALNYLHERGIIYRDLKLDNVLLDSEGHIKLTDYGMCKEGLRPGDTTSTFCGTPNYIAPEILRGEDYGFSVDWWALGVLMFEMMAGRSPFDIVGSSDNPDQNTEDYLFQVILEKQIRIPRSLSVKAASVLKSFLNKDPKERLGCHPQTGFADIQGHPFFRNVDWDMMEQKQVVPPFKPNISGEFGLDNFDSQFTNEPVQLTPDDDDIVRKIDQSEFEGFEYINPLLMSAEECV
Protocol: (§1) Binding efficiency and specificity of the peptides PRE 2, 3, 4, 5, 6, 7, 8, 9, 10, 11, 12 and 13 (see Table 3) was also tested using cytoplasmic extracts from different cell lines expressing appropriate PKC isoforms as described for Example 1. Briefly, the protein cytoplasmic extracts were separated by electrophoresis and transferred onto nitrocellulose membranes by standard Western blotting procedures. The bands on the Western blots were detected with matching primary antibodies and alkaline phosphatase conjugated secondary antibody. The bands were then scanned and the relative density measurements obtained.
(§2) This procedure to assess the binding characteristics of the PREs is based on competition binding of the PRE with the primary anti-isoform PKC specific antibodies. The lower the measured band density, the greater the binding of the PRE to the PKC isoform. The PREs were added at 10 and 20 times (10×, 20×) the primary antibody concentration, according to classical competition between antigenic peptide and primary antibody. The following cell lines (obtained from the ATCC) were used: H661—NCI human lung carcinoma NSCLC; MDAMB231—human highly invasive breast cancer cell line from pleural effusion; LS180—human colon adenocarcinoma; LnCAP—human prostate adenocarcinoma; CCD16Lu—human lung fibroblasts; Du145—human prostate carcinoma brain metastasis, and T24—human bladder carcinoma.
(§3) In these cases, the 20× band density figures relative to control and 10× values were reliable.

PKC-βI = PKC-βI (Homo sapiens, UniProt P05771); set-up: cytoplasmic extracts from different cell lines expressing appropriate PKC isoforms; endogenous in cells; host or cells: H661, MDAMB231, LS180, T24; key to Affinity for PKC isoform βI: —: no detectable affinity; Low to very low affinity at 10X or 20X or both PRE concentrations in at least one cell line in the cell extract assay; Low affinity in purified isoform assay.; Moderate affinity at 10X or 20X or both PRE concentrations in at least one cell line in the cell extract assay.; High affinity at 10X or 20X or both PRE concentrations in at least one cell line in the cell extract assay; High affinity in purified isoform assay; details: for Affinity for PKC isoform βI: Cell extract, PRE at 10X, 20X antibody concentration, Table 20
Protocol: as §1, §2, §3

PKC-ζ = target: T2, PKC-ζ (Homo sapiens, UniProt Q05513); set-up: cytoplasmic extracts from different cell lines expressing appropriate PKC isoforms; endogenous in cells; host or cells: MDAMB231, LnCAP, Du145, H661, CCD16Lu (human, from ATCC); key: —: no detectable affinity; Low to very low affinity at 10X or 20X or both PRE concentrations in at least one cell line in the cell extract assay; Low affinity in purified isoform assay.; Moderate affinity at 10X or 20X or both PRE concentrations in at least one cell line in the cell extract assay.; High affinity at 10X or 20X or both PRE concentrations in at least one cell line in the cell extract assay; High affinity in purified isoform assay; details: Cell extract; PRE at 10X, 20X antibody concentration; Table 20
T2 sequence (Q05513 1-592): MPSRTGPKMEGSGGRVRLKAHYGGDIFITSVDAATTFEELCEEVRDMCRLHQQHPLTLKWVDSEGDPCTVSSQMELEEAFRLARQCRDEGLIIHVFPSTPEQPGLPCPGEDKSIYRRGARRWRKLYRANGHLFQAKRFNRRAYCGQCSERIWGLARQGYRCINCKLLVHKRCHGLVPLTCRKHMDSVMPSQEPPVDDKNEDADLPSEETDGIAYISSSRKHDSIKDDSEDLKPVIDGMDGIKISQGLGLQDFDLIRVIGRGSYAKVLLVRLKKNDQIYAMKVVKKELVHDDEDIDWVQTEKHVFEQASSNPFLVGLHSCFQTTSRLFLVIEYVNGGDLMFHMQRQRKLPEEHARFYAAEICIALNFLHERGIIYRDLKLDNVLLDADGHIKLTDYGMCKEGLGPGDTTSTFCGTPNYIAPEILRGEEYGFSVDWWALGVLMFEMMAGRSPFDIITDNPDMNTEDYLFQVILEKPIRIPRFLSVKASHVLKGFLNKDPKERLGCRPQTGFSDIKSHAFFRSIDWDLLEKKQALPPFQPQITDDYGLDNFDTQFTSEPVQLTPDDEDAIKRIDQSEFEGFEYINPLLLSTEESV
Protocol: as §1, §2, §3

Sequence of PKC-βI (P05771 2-671): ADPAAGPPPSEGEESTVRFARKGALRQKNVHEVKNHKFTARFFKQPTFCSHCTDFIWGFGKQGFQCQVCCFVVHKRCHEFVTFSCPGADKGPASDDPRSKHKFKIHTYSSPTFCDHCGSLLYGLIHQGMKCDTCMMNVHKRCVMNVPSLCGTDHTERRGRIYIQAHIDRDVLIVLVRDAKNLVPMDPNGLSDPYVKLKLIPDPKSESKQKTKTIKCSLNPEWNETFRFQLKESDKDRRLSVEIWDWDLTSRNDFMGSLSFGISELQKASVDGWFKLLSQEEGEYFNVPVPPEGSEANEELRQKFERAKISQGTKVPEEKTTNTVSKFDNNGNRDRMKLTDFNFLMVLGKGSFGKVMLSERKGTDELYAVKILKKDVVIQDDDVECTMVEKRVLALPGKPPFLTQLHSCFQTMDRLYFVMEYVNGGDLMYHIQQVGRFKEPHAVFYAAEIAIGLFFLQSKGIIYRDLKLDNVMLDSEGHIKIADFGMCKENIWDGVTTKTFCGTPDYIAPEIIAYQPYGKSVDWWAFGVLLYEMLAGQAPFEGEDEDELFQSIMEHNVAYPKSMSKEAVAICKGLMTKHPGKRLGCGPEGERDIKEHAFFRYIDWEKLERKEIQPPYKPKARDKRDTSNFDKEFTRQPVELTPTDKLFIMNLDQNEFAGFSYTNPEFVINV

| Substance | Affinity for PKC isoform ι (PKC-ι) | Affinity for PKC isoform βI (PKC-βI) | Affinity for PKC isoform ζ (PKC-ζ) | affinity for PKC-βI (PKC-βI; cell extracts) |
| --- | --- | --- | --- | --- |
| Ac-AKGIQEVKGGDAQNLIGISI-NH2 [PRE 3] | L | L | — |  |
| Ac-AKGIQEVKGGKDAQNLIGISI-NH2 [PRE 5] |  | H | L/H |  |
| Ac-ISIGILNQADK-NH2 [PRE 10] |  | M | M/L |  |
| Ac-ISIGILQNADK-NH2 [PRE 7] | — | — | — |  |
| Ac-KDANQLIGISI-NH2 [PRE 6] | — | H | — |  |
| Ac-KDAQNLI-NH2 [PRE 12] | — | — | M/H |  |
| Ac-KDAQNLIGISI-NH2 [PRE 4, Ac-KDAQNLIGISI-NH2] | M/L | H | — | good affinity for PKC-βI |
| Ac-RDAQNLI-NH2 [PRE 13] | — | — | — |  |
| Ac-RDAQNLIGISI-NH2 [PRE 11] |  | H | — |  |
| Ac-isigilgnadk-NH2 [PRE 9] |  | M | M/L |  |
| RRKKGGKDFVVKR [PRE 1] | — | H | L |  |
